The conditions of data set [1]: mouse, in vivo.
For data set [2] the following is noted: mouse, in vivo. This is another data set of the same source.
The conditions of data set [3]: mouse, in vivo. This is another data set of the same source.
The conditions of data set [4]: mouse, in vivo, iv.
For data set [5] the following is noted: mouse, in vivo. This is another data set of the same source.

Turning to “^125I-Aβ40: custom synthesized amyloid-β 40 peptide, soluble form, radiolabeled with 125I by the chloramine-T procedure”, in data set [1], the “PS product in the whole brain, WT versus APP/PS1 mice” value is on record as “no differences”; the “PS product in the whole brain, lower in APP/PS1 mice compared to WT mice” value is given as ~ 1.5 fold; the “decrease in PS values at 52 weeks” value was ~ 1.5 fold. Besides, in data set [2], the “increase in plasma AUC at 52 weeks” value is given as ~ 7 fold and the “plasma AUC of 125I-Aβ40 relative to 125I-Aβ42” value is ~ 12 fold. Further, the “decrease in PS values in various brain regions at 52 weeks” value in data set [3] was ~ 4 fold.

Take “^125I-Aβ42: custom synthesized amyloid-β 42 peptide, soluble form, radiolabeled with 125I by the chloramine-T procedure”: in data set [1], the “PS product in the whole brain, WT versus APP/PS1 mice” value is on record as “no significant differences” and the “decrease in PS values at various brain regions at 24 weeks” value is given as ~ 1.5 fold. For the same substance, the “increase in PS values in various brain regions at 52 weeks” value in data set [3] is listed as ~ 1.5 fold.

As to “^125I-insulin: human insulin (Sigma-Aldrich) radiolabeled with 125I by the chloramine-T procedure”, the “decrease in brain influx clearance (Ki) at 104 weeks compared to 12 weeks” value in data set [4] is listed as ~ 2 fold. The “decrease in PS products at various brain regions at 24 weeks compared to 8 weeks” value in data set [5] is ~ 5 fold.

These data come from publication PMC10846947 (Journal of Alzheimer's disease : JAD, 2022).
